Assay results from the supplement of paper PMC7877785.
± gives the uncertainty stated by the source.

Test: self-splicing fitness, log relative to wild type (ln ratio); higher = more splicing; Tetrahymena group I intron in knt gene, E. coli kanamycin selection, DiMSum; sequences stand for … in CUCUCU…GGAGGGAAAAGUUAUCAGGCAUGCACCUGGUAGCUAGUCUUUAAACCAAUAGAUUGCAUCGGUUUAAAAGGCAAGACCGUCAAAUUGCGGGAAAGGGGUCAACAGCCGUUCAGUACCAAGUCUCAGGGGAAACUUUGAGAUGGCCUUGCAAAGGGUAUGGUAAUAAGCUGACGGACAUGGUCCUAACCACGCAGCCAAGUCCUAAGUCAACAGAUCUUCUGUUGAUAUGGAUGCAGUUCACAGACUAAAUGUCGGUCGGGGAAGAUGUAUUCUUCUCAUAAGAUAUAGUCGGACCUCUCCUUAAUGGGAGCUAGCGGAUGAAGUGAUGCAACACUGGAGCCGCUGGGAACUAAUUUGUAUGCGAAAGUAUAUUGAUUAGUUUUGGAGUACUCGUGGUCG
Procedure, shortened: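 Pooled colonies went to amplicon sequencing on an Illumina HiSeq 2500 after six replicate transformations. The plates were LB agar with 100 μg/mL carbenicillin, 50 μM IPTG and 0.2% rhamnose, with or without 25 μg/mL kanamycin, incubated overnight at 37°C or 30°C. The E. coli BL21(DE3) library had all eight P1ex-region intron nucleotides randomised, the intron placed in the knt kanamycin-resistance gene on pET-22b(+). DiMSum fitness is the error-weighted combination of replicate fold changes, kanamycin against none, normalised to wild type.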

Sequence	self-splicing fitness (ln) (30 °C)	self-splicing fitness (ln) (37 °C)
AUGCAGCAAUAUUACGUUUC	-3.96 ± 0.18	-3.31 ± 0.32
AUGGAGCAAUAUUACGAAUA	-2.15 ± 0.34	-1.08 ± 0.36
AUGGAGCAAUAUUACGACCG	-3.83 ± 0.37	-1.19 ± 0.26
AUGGAGCAAUAUUACGAUGU	-1.25 ± 0.14	-0.184 ± 0.2
AUGGAGCAAUAUUACGCACC	-2.45 ± 0.4	-1.26 ± 0.22
AUGGAGCAAUAUUACGCCAC	-2.95 ± 0.41	–
AUGGAGCAAUAUUACGCCCU	-2.84 ± 0.3	-2.13 ± 0.37
AUGGAGCAAUAUUACGCGGG	-2.84 ± 0.45	–
AUGGAGCAAUAUUACGCUGU	-2.13 ± 0.21	-1.37 ± 0.44
AUGGAGCAAUAUUACGGACA	-3.23 ± 0.43	-1.91 ± 0.2
AUGGAGCAAUAUUACGGAGG	-2.11 ± 0.17	-2.54 ± 0.3
AUGGAGCAAUAUUACGGGGU	–	-2.27 ± 0.37
AUGGAGCAAUAUUACGGGUA	-3.28 ± 0.27	-3.06 ± 0.35
AUGGAGCAAUAUUACGGUCC	-3 ± 0.32	-0.466 ± 0.31
AUGGAGCAAUAUUACGGUGG	-4.09 ± 0.3	-2.17 ± 0.27
AUGGAGCAAUAUUACGUACU	-0.848 ± 0.16	-0.491 ± 0.18
AUGGAGCAAUAUUACGUCAU	–	-1.33 ± 0.27
AUGGAGCAAUAUUACGUGAG	-2.31 ± 0.14	-2.09 ± 0.15
AUGGAGCAAUAUUACGUGGA	-4.25 ± 0.4	-1.78 ± 0.29
AUGGAGCAAUAUUACGUGGC	-2.39 ± 0.29	-2.39 ± 0.38
AUGGAGCAAUAUUACGUGGU	-3.08 ± 0.17	-1.35 ± 0.23
AUGGAGCAAUAUUACGUGUG	–	-2.69 ± 0.24
AUGGAGCAAUAUUACGUUAA	-2.58 ± 0.22	-1.59 ± 0.23
AUGUAGCAAUAUUACGAAAG	-2.59 ± 0.23	-2.2 ± 0.26
AUGUAGCAAUAUUACGACCG	-0.834 ± 0.12	-0.5 ± 0.17

Sequence	self-splicing fitness (ln) (30 °C)	self-splicing fitness (ln) (37 °C)
AUGUAGCAAUAUUACGACUA	-0.419 ± 0.27	-0.536 ± 0.31
AUGUAGCAAUAUUACGAGAU	-2.04 ± 0.14	-0.409 ± 0.13
AUGUAGCAAUAUUACGAGGA	-3 ± 0.41	-2.11 ± 0.43
AUGUAGCAAUAUUACGAUAG	-2.48 ± 0.19	-2.67 ± 0.27
AUGUAGCAAUAUUACGAUGU	-0.753 ± 0.064	-0.0629 ± 0.087
AUGUAGCAAUAUUACGAUUG	-1.21 ± 0.15	-3.05 ± 0.38
AUGUAGCAAUAUUACGCAGG	-2.06 ± 0.22	-1.7 ± 0.19
AUGUAGCAAUAUUACGCCGG	-2.45 ± 0.17	-0.942 ± 0.33
AUGUAGCAAUAUUACGCCUG	-1.33 ± 0.23	-0.722 ± 0.21
AUGUAGCAAUAUUACGCGCA	-0.46 ± 0.16	-0.226 ± 0.15
AUGUAGCAAUAUUACGCGGU	-2.3 ± 0.15	-1.58 ± 0.2
AUGUAGCAAUAUUACGCUAA	-1.75 ± 0.12	-0.814 ± 0.13
AUGUAGCAAUAUUACGGAGG	-3.57 ± 0.23	-2.57 ± 0.23
AUGUAGCAAUAUUACGGCGA	-0.117 ± 0.088	-0.00452 ± 0.11
AUGUAGCAAUAUUACGGCUA	-2.45 ± 0.22	-2.14 ± 0.25
AUGUAGCAAUAUUACGUAAA	-2.25 ± 0.25	-1.9 ± 0.26
AUGUAGCAAUAUUACGUAGC	-2.56 ± 0.18	-2.43 ± 0.29
AUGUAGCAAUAUUACGUGUA	-2.47 ± 0.11	-1.74 ± 0.089
AUGUAGCAAUAUUACGUUAU	-2.41 ± 0.22	-2.12 ± 0.22
AUUAAGCAAUAUUACGAAAA	-1.27 ± 0.16	-1.5 ± 0.18
AUUAAGCAAUAUUACGAAAC	-3.37 ± 0.16	-1.6 ± 0.15
AUUAAGCAAUAUUACGAAAG	-1.89 ± 0.15	-1.23 ± 0.16
AUUAAGCAAUAUUACGAACC	-1.35 ± 0.29	-0.847 ± 0.29
AUUAAGCAAUAUUACGACAC	-0.804 ± 0.13	-0.46 ± 0.14
AUUAAGCAAUAUUACGAGAC	-3.39 ± 0.48	-1.46 ± 0.27

Sequence	self-splicing fitness (ln) (30 °C)	self-splicing fitness (ln) (37 °C)
AUUAAGCAAUAUUACGAGUA	-2.07 ± 0.16	-1.49 ± 0.13
AUUAAGCAAUAUUACGCAGG	-2.22 ± 0.19	-0.608 ± 0.2
AUUAAGCAAUAUUACGCGCA	-0.661 ± 0.13	0.376 ± 0.16
AUUAAGCAAUAUUACGCGGA	-2.44 ± 0.2	-0.491 ± 0.15
AUUAAGCAAUAUUACGCGUG	-0.804 ± 0.067	-0.697 ± 0.081
AUUAAGCAAUAUUACGCUCG	-0.344 ± 0.11	0.171 ± 0.15
AUUAAGCAAUAUUACGCUCU	-0.588 ± 0.18	0.11 ± 0.16
AUUAAGCAAUAUUACGCUUA	-2.18 ± 0.26	-1.82 ± 0.25
AUUAAGCAAUAUUACGGAAU	-1.3 ± 0.14	-1.3 ± 0.18
AUUAAGCAAUAUUACGGACG	-1.18 ± 0.12	-0.721 ± 0.14
AUUAAGCAAUAUUACGGAGG	-2.32 ± 0.16	-1.42 ± 0.27
AUUAAGCAAUAUUACGGUCU	-0.183 ± 0.15	0.0171 ± 0.15
AUUAAGCAAUAUUACGUAAC	-2.12 ± 0.12	-1.88 ± 0.14
AUUAAGCAAUAUUACGUACU	0.0206 ± 0.094	0.125 ± 0.12
AUUAAGCAAUAUUACGUAGA	-2.39 ± 0.15	-0.947 ± 0.15
AUUAAGCAAUAUUACGUUAC	-2.99 ± 0.26	-1.16 ± 0.27
AUUAAGCAAUAUUACGUUUA	-1.61 ± 0.14	-1.54 ± 0.15
AUUCAGCAAUAUUACGAAUC	-2.12 ± 0.2	-0.519 ± 0.32
AUUCAGCAAUAUUACGAAUU	-3.71 ± 0.15	-2.29 ± 0.16
AUUCAGCAAUAUUACGACCG	0.174 ± 0.18	-0.187 ± 0.27
AUUCAGCAAUAUUACGACUG	-1.47 ± 0.13	-0.646 ± 0.15
AUUCAGCAAUAUUACGAUAG	-3.99 ± 0.42	-2.57 ± 0.26
AUUCAGCAAUAUUACGAUAU	-0.41 ± 0.057	0.146 ± 0.079
AUUCAGCAAUAUUACGCAGA	-2.28 ± 0.21	-0.845 ± 0.12
AUUCAGCAAUAUUACGCAUC	-2.75 ± 0.16	-0.806 ± 0.16

Sequence	self-splicing fitness (ln) (30 °C)	self-splicing fitness (ln) (37 °C)
AUUCAGCAAUAUUACGCCCU	0.164 ± 0.13	0.287 ± 0.21
AUUCAGCAAUAUUACGCGCC	-1.17 ± 0.15	0.194 ± 0.21
AUUCAGCAAUAUUACGCGUU	-0.912 ± 0.07	-0.348 ± 0.081
AUUCAGCAAUAUUACGGAGG	-2.29 ± 0.13	-1.13 ± 0.13
AUUCAGCAAUAUUACGGCCA	-0.32 ± 0.21	-0.225 ± 0.21
AUUCAGCAAUAUUACGGCGA	-0.392 ± 0.078	-0.501 ± 0.084
AUUCAGCAAUAUUACGGCGU	0.256 ± 0.057	0.488 ± 0.074
AUUCAGCAAUAUUACGGGCU	-2.2 ± 0.12	-1.38 ± 0.12
AUUCAGCAAUAUUACGGGUU	-2.8 ± 0.17	-1.75 ± 0.16
AUUCAGCAAUAUUACGUACA	-0.718 ± 0.095	0.309 ± 0.11
AUUCAGCAAUAUUACGUCAG	-2.51 ± 0.15	-1.67 ± 0.22
AUUCAGCAAUAUUACGUGAC	-3.05 ± 0.44	-1.84 ± 0.35
AUUCAGCAAUAUUACGUGUC	-4.2 ± 0.22	-2.02 ± 0.2
AUUCAGCAAUAUUACGUUCA	-1.07 ± 0.12	-0.606 ± 0.13
AUUCAGCAAUAUUACGUUGA	-2.64 ± 0.1	-1.34 ± 0.093
AUUCAGCAAUAUUACGUUGG	-2.45 ± 0.12	-1.94 ± 0.13
AUUCAGCAAUAUUACGUUUG	-2.76 ± 0.094	-1.54 ± 0.1
AUUGAGCAAUAUUACGAACG	-2.34 ± 0.18	-0.91 ± 0.3
AUUGAGCAAUAUUACGAGAG	–	-2.66 ± 0.29
AUUGAGCAAUAUUACGAUCC	-1.32 ± 0.4	–
AUUGAGCAAUAUUACGCAGG	-3.68 ± 0.29	-2.72 ± 0.27
AUUGAGCAAUAUUACGCCUG	-2.27 ± 0.33	–
